By Kd is commonly meant a measure of binding affinity in units of concentration. The term koff denotes the first-order rate constant of dissociation. A word on the kon: it is a measure of how fast the partners come together.

The target of the assay is T1, 重组人proAMH蛋白 (recombinant human proAMH protein) (human, UniProt P03971 25-560).
T1 construct: Expressed in Expi293 cells and purified on Ni-IMAC; nothing is said about the recombinant protein itself; also called His-tag重组人proAMH蛋白; 人proAMH标准品蛋白; not shown: His-tag; neither its length nor its terminus is stated
T1 sequence (looked up): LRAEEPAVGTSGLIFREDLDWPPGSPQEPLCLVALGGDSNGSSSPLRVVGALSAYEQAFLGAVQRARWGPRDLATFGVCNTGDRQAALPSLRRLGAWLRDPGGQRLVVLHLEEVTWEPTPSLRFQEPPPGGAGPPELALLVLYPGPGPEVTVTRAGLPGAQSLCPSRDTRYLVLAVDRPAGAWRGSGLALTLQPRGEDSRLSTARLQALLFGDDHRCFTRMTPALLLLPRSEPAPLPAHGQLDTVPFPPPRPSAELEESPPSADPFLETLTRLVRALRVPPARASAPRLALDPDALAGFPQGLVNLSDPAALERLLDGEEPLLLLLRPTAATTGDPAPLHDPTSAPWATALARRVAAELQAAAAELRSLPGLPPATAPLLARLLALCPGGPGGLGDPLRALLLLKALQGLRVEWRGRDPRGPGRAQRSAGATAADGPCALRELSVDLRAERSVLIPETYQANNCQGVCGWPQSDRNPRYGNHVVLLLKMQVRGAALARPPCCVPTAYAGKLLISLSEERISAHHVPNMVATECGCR
Description: SPR, Biacore 3000; antibody immobilised on CM5 chip, proAMH at 100-3 nM as analyte. In general terms: In SPR one partner is held on a chip, and binding of the other changes the refractive index at the surface.

B1: 单克隆抗体A (抗人proAMH蛋白兔单克隆抗体A) (antibody, V domains shown)
VH: QSVKESEGGLFKPTDTLTLTCTVSAFSISTYGVSWVRQAPGNGLEYIGWIAATGKVFYASWAKSRSTITRNTYENTVTLKMTSLTVADTATYFCAHVIWATQTFDFWGPGTLVTVSS
VL: DVVMTQTPASVSDPVGGTVTIKCQASQTITNFLSWFQQKPGQPPKLLIYNTMTLASGVPSRFKGSGSGTEYTLTISGVECADAATYYCQEGDNWDEVDAVFGGGTEVVVKG
notes: Recombinant rabbit monoclonal antibody made in 293F cells; kappa light chain, heavy constant region called IgG1 type; Copies '2' follows from the IgG format; also called monoclonal antibody A
For the molecule B1, the Kd is 6.02 nM, the koff was found to be 0.000117 s⁻¹ and the kon amounted to 19500 M⁻¹ s⁻¹.

Values taken from CN114891104A (YOURUI SAISI WUHAN BIOTECHNOLOGY CO LTD, dated 2022).
